The values that follow come from PMC12321301.

The target of data set [1] is T1, cardiac troponin I (cTnI) (UniProt P19429 2-210). Put plainly: direct ELASA.
Data set [2] concerns the target T1, cardiac troponin I (cTnI). Put plainly: direct ELASA. This is another data set of the same source.

Read-outs that look alike come from different tables or passages of the source.

T1 sequence (P19429 2-210): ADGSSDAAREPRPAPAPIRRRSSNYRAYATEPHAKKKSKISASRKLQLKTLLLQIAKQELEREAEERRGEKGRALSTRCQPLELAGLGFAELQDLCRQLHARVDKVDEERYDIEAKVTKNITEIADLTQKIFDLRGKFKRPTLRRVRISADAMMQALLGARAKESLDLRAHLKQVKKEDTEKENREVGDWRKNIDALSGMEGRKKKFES

B1: Tro6 (5'-thiol C6, HRP conjugate) (ssDNA)
DNA: CGCATGCCAAACGTTGCCTCATAGTTCCCTCCCCGTGTCC
Consider B1, for which the binding result in data set [1] is reported as “binds”.

B2: Tro4 (5'-biotin) (ssDNA)
DNA: CGTGCAGTACGCCAACCTTTCTCATGCGCTGCCCCTCTTA
On to B2, for which the binding result in data set [2] is reported as “binds”.
